Patent publication US20210292393A1 (published 2021)

Assays:
[1] = biological target: T1, SARS-CoV-2 full length spike protein (wild type) (SARS-CoV-2, UniProt P0DTC2 14-1208); assay: multiplexed bead assay, flow cytometry; columns A, B, D, G, H, I
T1 construct: also called SARS-CoV-2 spike; S protein

[2] = biological target: T2, SARS-CoV-2 spike (S) protein, full length, wild type (SARS-CoV-2, UniProt P0DTC2 14-1208); assay: multiplexed bead assay, flow cytometry
T2 construct: also called SARS-CoV-2 full length spike; full-length trimeric SARS-CoV-2 spike protein

B1: antibody 341 (antibody, V domains shown)
VH: QLQLQESGPGLVKPSETLSLTCTVSGGSISSSSYYWGWIRQPPGKGLEWIGSIYYSGSTYYNPSLKSRVTISVDTSKNQFSLKLSSVTAADTAVYYCARRPLRYFDWLTNFDYWGQGTLVTVSS
VL: EIVLTQSPATLSLSPGERATLSCRASQSVSSYLAWYQQKPGQAPRLLIYDASNRATGIPARFSGSGSGTDFTLTISSLEPEDFAVYYCQQRSNWPITFGQGTRLEIK
- binding result [1]: no binding

B2: anti-SARS-CoV-2 antibody 474 (antibody, V domains shown)
VH: EVQLVESGGGLVQPGGSLRLSCAASGFTFSSYWMHWVRQAPGKGLVWVSRINSDGSSTSYADSVKGRFTISRDNAKNTLYRQMNSLRAEDTAVYYCALGPLDIVGSYYYYGMDVWGQGTTVTVSS
VL: NFMLTQPHSVSESPGKTVTISCTGSSGSIASNYVQWYQQRPGSAPTTVIYEDNQRPSGVPDRFSGSIDSSSNSASLTISGLKTEDEADYYCQSYDSSNQDVVFGGGTKLTVL
- binding result [2]: no binding
